From the supplement of paper PMC10567573

B1: CDC14A (parent)
chain: LNLAMVYRYCCKLNKKLKSYSLSR
B2: ADAMTS4 (parent)
chain: HVDPEEPWSPCSARFITDFLDNGY

Variants of: B1
Assay: protein stability index of a GFP-peptide fusion (GPS, HEK-293T) (PSI 1-6); higher = more stable
Conditions: c terminus: a fixed tail appended
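Also: lentivirally expressed fusions sorted by FACS into six bins by GFP to DsRed ratio, PSI derived from sequencing read proportions per bin multiplied by bin number.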

Protein stability index of substitutions, site by site:
S23: D 2.55; P 2.95; F 2.69; R 4.26; E 4.66; N 2.35; G 2.2; A 3.5; L 2.37
L13: H 2; C 2.79; D 2.11; R 3.08; Y 2.32; F 3.31; N 1.89; V 4.56
R8: V 3.11; Q 2.26; S 2.98; Y 2.67; I 2.62; C 3.52; G 3.71; L 3.17; F 3.02; N 1.97; E 2.43
L1: C 3.72; I 3.18; Y 2.49; A 2.44; R 2.77; F 2.51; S 3.71; K 2.73
K12: T 2.55; V 2.59; S 2.58; F 2.18; P 2.87; Y 2.51; M 2.19; W 2.14; G 1.89; E 1.5; I 3.53; Q 3.04
S19: A 3.52; Q 1.51; M 3.69; I 3.03; W 3.46; C 2.98; D 2.28
N14: P 4.59; G 3.52; Y 3.35; R 3.97; Q 4.32; D 2.8; I 2.38; A 3.35
R24: N 3.15; L 3.97; Q 4.16; D 3.64; S 2.19; G 2.21; P 2.59; A 3.55; Y 3.41; M 2.37; K 2.13; C 3.05; W 3.11
C11: H 3.15; S 3.77; M 2.74; Y 2.63; D 2.85; W 2.15; A 2.73
N2: C 3.28; P 3.42; I 2.14; A 3.34; M 3.27; W 3.17; T 2.24; Y 2.64
L17: G 2.85; A 2.65; V 4.14; D 2.14; C 4.4; Y 3.33; E 1.69; R 2.78; I 2.95
Y9: T 2.54; C 2.59; W 2.91; N 2.03; S 2.19; H 2.48; D 2.91; R 2.03
K16: T 3.67; H 3.33; S 2.33; C 4.54; I 1.62; F 1.63
L22: T 2.8; R 2.31; I 3.6; C 2.92; Y 4.37; F 3.36
V6: E 1.76; K 2.39; C 3.05; G 1.73; Q 2.85; M 2.72; P 2.15; R 2.78; L 2.01
Y20: R 2.17; W 3.32; C 3.44; S 2.63; T 2.42; H 3.02; N 2.16; V 2.52
K18: C 1.73; P 2.5; L 1.71; E 3.12; V 2.46
L3: I 2.02; F 3.38; M 2.88; Y 1.81; D 2.29; C 4; P 3.05; A 2.74; H 1.8
M5: W 3.48; C 4.65; K 3.87; A 2.67; N 3.77; H 3.35; F 2.8
K15: F 2.81; Y 3.3; I 3.62; D 2.33; M 1.07; P 2.32; V 3.04; A 2.87; C 4.37; N 2.31
A4: V 2.74; N 3.18; Y 2.91; I 2.37; T 2.15; S 3.5; E 2.43
S21: I 3.96; Y 2.62; V 4.29; A 3.27; L 2.25; M 3.42; Q 2.86; E 3.12; N 2.51; P 3.64; W 2.86
C10: A 2.41; T 2.32; D 2.31; E 1.98; K 1.65; G 2.71; L 2.67; P 2.05; S 2.28
Y7: E 2.16; H 2.68; F 3.48; T 3.96; C 2.73; G 2.43; K 2.13; M 1.91; S 3.42

Variants of: B2
Assay: as above
Conditions: c terminus: a fixed tail appended

Protein stability index of substitutions, site by site:
N22: P 2.09; C 2.35; R 1.7; L 1.71; Y 1.78; S 1.47; G 2.07; D 1.88; I 2.52; M 1.92; K 1.57; V 1.94; H 1.62; Q 2.09; T 1.46; F 1.85; A 1.8; E 2.19; W 1.3
G23: K 2.06; Y 2.02; E 1.96; M 1.69; V 2.27; P 2.1; D 2.24; F 2; T 2.22; H 2.12; Q 1.65; I 2.05; W 1.82; R 1.53; C 2.17; N 1.61; L 1.82; S 1.71; A 1.74
D21: C 1.95; S 1.73; Q 2.21; G 1.76; H 1.43; T 1.96; V 2.2; P 1.96; R 1.87; A 1.35; K 1.88; I 2.69; L 1.6; E 1.71; M 1.77; N 1.84; W 2.42; F 2.12; Y 1.33
D18: Q 1.67; K 2.02; G 1.59; L 2.6; M 2.9; P 2.17; R 1.13; Y 1.94; T 1.65; S 1.61; H 1.89; I 2.73; F 1.6; N 1.58; W 1.53; V 2.03
F19: C 1.5; L 1.64; E 1.96; K 2.16; A 1.86; Y 1.58; S 2.17; V 1.78; T 2.02; I 1.8; Q 2.21; H 2.29; D 2.54; G 2.06; R 1.65; P 3; W 1.93; M 1.89; N 2.05
Y24: L 1.84; M 2.07; K 1.94; G 2.36; D 1.75; R 1.96; Q 2.1; A 2.32; C 1.39; W 1.64; S 1.81; F 2.17; T 2; I 2.05; V 1.73; N 2.21; H 1.9; P 1.92; E 2.01
L20: P 2.15; G 2.31; T 2.13; S 1.82; V 1.92; K 1.93; F 2.04; D 2.22; A 1.96; Y 2.14; W 1.59; Q 2.28; E 2.24; I 1.78; C 1.52; M 1.82; N 2.39; R 2.3; H 1.92
